Patent publication US20230183336A1 (MODMAB THERAPEUTICS, published 2023)

Key:
[1] = molecular target: T1, recombinant mouse LRP5-His chimera (mouse, UniProt Q91VN0 31-1383); assay: single-point ELISA, coated antigen, purified Fab or IgG1, anti-kappa-HRP
T1 construct: extracellular domain; also called ECD of mouse LRP5; not shown: His tag
T1 sequence (looked up): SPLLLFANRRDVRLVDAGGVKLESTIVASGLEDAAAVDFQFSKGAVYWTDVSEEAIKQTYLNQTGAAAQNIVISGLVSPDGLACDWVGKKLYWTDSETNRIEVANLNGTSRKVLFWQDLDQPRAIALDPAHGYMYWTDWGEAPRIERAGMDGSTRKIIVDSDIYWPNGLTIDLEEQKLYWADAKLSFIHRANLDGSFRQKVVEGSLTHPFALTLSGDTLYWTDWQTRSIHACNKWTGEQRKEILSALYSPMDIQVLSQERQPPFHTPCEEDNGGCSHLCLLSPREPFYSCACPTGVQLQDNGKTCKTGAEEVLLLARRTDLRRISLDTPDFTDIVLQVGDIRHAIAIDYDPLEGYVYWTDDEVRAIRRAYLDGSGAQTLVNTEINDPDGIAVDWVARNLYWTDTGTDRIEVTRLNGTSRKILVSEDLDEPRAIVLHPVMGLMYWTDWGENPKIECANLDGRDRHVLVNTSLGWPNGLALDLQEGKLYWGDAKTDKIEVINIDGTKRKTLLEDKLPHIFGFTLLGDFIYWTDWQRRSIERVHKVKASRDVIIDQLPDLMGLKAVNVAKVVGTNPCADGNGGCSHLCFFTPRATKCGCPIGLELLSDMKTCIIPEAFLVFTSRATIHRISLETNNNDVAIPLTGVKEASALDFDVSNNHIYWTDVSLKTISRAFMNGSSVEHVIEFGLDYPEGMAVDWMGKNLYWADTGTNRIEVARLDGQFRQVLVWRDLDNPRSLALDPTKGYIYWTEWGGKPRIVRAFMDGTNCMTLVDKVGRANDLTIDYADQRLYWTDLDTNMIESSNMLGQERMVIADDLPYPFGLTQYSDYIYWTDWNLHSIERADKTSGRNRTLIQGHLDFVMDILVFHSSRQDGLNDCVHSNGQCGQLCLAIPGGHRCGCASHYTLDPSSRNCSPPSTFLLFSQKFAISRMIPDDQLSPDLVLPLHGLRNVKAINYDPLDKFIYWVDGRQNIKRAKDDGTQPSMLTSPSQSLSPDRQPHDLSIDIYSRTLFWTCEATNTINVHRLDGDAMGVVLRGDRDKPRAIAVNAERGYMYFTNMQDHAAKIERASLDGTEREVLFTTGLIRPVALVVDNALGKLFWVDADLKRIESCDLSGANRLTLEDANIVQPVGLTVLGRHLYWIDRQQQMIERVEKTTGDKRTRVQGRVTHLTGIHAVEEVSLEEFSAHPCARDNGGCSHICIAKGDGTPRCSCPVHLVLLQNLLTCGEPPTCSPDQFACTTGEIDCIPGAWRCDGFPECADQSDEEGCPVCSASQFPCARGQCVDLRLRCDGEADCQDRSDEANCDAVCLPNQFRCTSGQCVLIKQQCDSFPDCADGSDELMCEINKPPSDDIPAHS
Procedure: (§1) FIGS. 1A and 1B show sixteen (16) anti-LRP antibodies. (A) The amino acid sequences of the complementarity determining regions (CDR) of the heavy (H) and the light (L) chains are presented. The antibodies were grouped into unique epitopes as determined by competitive ELISAs. (B) Single-point ELISAs were performed on 96-well Maxisorb immune plates coated with ECD's of mouse LRP5, mouse LRP6 and human LRP6 chimeras. The plates were incubated with the purified Fab or IgG1 at the concentrations indicated followed by incubation with horseradish peroxidase (HRP)-conjugated anti-kappa antibody. The wells were washed eight times followed by incubation with 3,3′,5,5′-tetramethylbenzidine/H₂O₂ peroxidase (TMB) substrate for 5-10 min. The reaction was stopped by adding 1M H₃PO₄ and the absorbance was measured spectrometrically at 450 nm in a microtiter plate reader. FIG. 1A discloses “SSVA” as SEQ ID NO: 34, and “SASSLYS” as SEQ ID NO: 35, as well as SEQ ID NOS 36-49, 51, 44, 2-4, 4, 5-7, 5, 4, 5, 8-10, 4, 52, 55, 11-16, 15, 15, 13, 17-20, 13, 53, 56, 21-23, 22, 24-33, 54, 57, respectively, in order of columns.
(§2) The full length IgG1s and the antibody fragments (Fabs) were purified and a single-point ELISA was done to determine the specificity of the antibodies. […] A multipoint competitive ELISA was used to determine the relative affinities of the antibodies to the recombinant antigen.

[2] = molecular target: T2, recombinant mouse LRP6-His chimera (mouse, UniProt O88572 20-1370); assay: as above
T2 construct: extracellular domain; also called ECD of mouse LRP6; not shown: His tag
T2 sequence (looked up): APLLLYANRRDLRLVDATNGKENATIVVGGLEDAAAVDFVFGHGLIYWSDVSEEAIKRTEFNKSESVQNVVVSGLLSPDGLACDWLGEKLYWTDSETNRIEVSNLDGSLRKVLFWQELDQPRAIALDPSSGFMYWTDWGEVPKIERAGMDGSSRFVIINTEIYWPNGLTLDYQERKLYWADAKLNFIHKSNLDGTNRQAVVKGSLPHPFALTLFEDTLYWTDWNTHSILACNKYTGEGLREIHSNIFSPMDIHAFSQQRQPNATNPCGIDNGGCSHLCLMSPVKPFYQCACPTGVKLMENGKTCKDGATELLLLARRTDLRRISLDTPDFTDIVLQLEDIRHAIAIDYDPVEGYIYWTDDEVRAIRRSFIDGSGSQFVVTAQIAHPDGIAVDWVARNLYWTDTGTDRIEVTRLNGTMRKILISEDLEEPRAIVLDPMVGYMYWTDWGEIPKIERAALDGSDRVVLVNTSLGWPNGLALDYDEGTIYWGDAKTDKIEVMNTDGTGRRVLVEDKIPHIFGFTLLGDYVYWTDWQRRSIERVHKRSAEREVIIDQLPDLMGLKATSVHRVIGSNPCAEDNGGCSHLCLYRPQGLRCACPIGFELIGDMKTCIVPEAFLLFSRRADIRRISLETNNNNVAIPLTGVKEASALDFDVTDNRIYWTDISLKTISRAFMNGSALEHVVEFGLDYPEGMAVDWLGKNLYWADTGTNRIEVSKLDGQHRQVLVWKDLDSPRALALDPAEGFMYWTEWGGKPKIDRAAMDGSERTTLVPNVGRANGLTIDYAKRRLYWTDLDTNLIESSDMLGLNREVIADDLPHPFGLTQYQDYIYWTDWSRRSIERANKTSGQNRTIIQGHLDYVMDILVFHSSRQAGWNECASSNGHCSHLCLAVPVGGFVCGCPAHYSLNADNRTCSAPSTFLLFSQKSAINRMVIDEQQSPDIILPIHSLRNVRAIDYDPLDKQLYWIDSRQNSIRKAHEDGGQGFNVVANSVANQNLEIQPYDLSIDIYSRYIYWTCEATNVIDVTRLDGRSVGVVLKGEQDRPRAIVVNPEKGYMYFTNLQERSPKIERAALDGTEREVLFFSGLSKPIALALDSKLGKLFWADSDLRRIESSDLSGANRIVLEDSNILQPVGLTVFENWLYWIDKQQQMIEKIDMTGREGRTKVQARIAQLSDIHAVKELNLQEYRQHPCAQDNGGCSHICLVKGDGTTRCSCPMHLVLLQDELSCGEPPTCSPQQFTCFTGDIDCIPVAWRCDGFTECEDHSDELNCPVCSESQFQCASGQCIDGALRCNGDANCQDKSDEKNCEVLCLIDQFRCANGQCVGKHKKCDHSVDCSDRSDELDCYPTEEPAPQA
Procedure: as §1, §2

B1: LRP5-R3O_D3 (antibody, V domains shown)
VH: EVQLVESGGGLVQPGGSLRLSCAASGFNFSSSSIHWVRQAPGKGLEWVASISSSYGYTYYADSVKGRFTISADTSKNTAYLQMNSLRAEDTAVYYCARSWAMDYWGQGTLVTVSS
VL: DIQMTQSPSSLSASVGDRVTITCRASQSVSSAVAWYQQKPGKAPKLLIYSASSLYSGVPSRFSGSRSGTDFTLTISSLQPEDFATYYCQQYWAYYSPITFGQGTKVEIKR
notes: Fab-phage in the screen; also called LRP5-R30_D3; LRP5-R30D3
Q: Does B1 bind [1]?
A: Result: binds

Q: Does B1 bind [2]?
A: Result: binds
